# Source: the RNAGym collection of RNA variant scans (doi:10.1073/pnas.2313332121)
# Variants at the floor of the assay were thinned out.
# B1: TPR 5TU (parent)
# chain: GGAUCUUCUCGAUCUAACAAAAAAGACAAAUCUGCCACAAAGCUUGAGAGCAUCUUCGGAUGCAGAGGCGGCAGCCUUCGGUGGCGCGAUAGCGCCAACGUUCUCAACUAUGACACGCAAAACGCGUGCUCCGUUGAAUGGAGUUUAUCAUG
# Variants of: B1
# Experiment: polymerase ribozyme fitness, log enrichment relative to wild type (log ratio); higher = more active; in vitro selection for triplet polymerase activity
# How it was run: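 Libraries of mutants in each subunit of a heterodimeric triplet polymerase ribozyme were generated by PCR and transcribed. In triplicate, each went through one in vitro selection round: annealing with biotinylated primer, partner subunit and triplets; frozen incubation at −7 °C; gel excision of extended constructs; streptavidin-bead capture; RT-PCR. Fitness, taken from Illumina sequencing of input and output libraries, is the logarithm of a genotype's enrichment over wild-type enrichment, averaged across replicates with inverse-variance weights. The logarithm is base 2, and genotypes needed ≥10 input reads and ≥1 read per output to be kept.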
row,Variant,polymerase ribozyme fitness (log ratio)
1,G59A G70C,-2.8
2,C63G C87U C129G U139C G143U,≤ -4.2
3,G59C U82G G143C,-2.29
4,A60G A120G G128C A142G,-2.95
5,G59C C87U U109G,-1.03
6,A64U G84U,≤ -4.2
7,A64U A73G A89C G92A A150U,≤ -4.2
8,G59A G65C G68A U77C G133U,≤ -4.2
9,C63G C75U C93U A120U,-0.964
10,G59U G94C C99A G128C C129U U130C G140U,≤ -4.2
11,A60U C116U G141A,-0.772
12,A66G C87A,≤ -4.2
13,G59A A73U C75U C87A C95A G100U U127G A150C,≤ -4.2
14,G59U G86A,-1.19
15,G59C G83A C125A,-1.12
16,C63A C93U A98C,-1.62
17,U61A C75U,-1.92
18,G59A A97G,-0.633
19,A66G C76A,-3.94
20,G62U G65A C103A,-3.94
21,G59A G71U G84U G92A A115G C118G U144C C149G,≤ -4.2

row,Variant,polymerase ribozyme fitness (log ratio)
1,G59C U90C C108G A119U A150U,≤ -4.2
2,G59U C76G A110U G124C A137G,≤ -4.2
3,G59A A138C U146C A150G,≤ -4.2
4,G62A G92A C116U,-2.52
5,G62U C85U C96U C118U,-1.28
6,C63A G70A G84A,≤ -4.2
7,G59A C123U G136C C149G,-4.17
8,G59A U61A C72A,≤ -4.2
9,G59C G84U G124C,-2.97
10,G58U A97G G112C C149A,≤ -4.2
11,G59A C85G,-2.1
12,G59A C85A,-1.04
13,U61C C85U,-2.66
14,G62U C76U C85G,-2.1
15,C63U C85A,-3.57
16,G59U G86A G143U,-3.52
17,G58U G59C U78A C108G U148A,≤ -4.2
18,G59A C85G G92U C95A C116A U127G,≤ -4.2
19,C63G G68U G71A U78G C85G G100A G141U,≤ -4.2
20,A60U C99A G140U,≤ -4.2
21,U61A A91C,≤ -4.2

row,Variant,polymerase ribozyme fitness (log ratio)
1,G62A C85U G86U C87G,≤ -4.2
2,G58U C96U,-0.236
3,A64U C79U C87A A137G,≤ -4.2
4,G59C G65C G136U,≤ -4.2
5,U61G G67A G68U C87A A107U G126C C149G,≤ -4.2
6,C63G C125G U145C A150C,≤ -4.2
7,G65A C131U,-0.0454
8,G59C C95A C131G G136U,≤ -4.2
9,U61A G86A,-2.67
10,G58U G80U U104G,-2.41
11,G58U U148A,-3.05
12,A60G C85A U104A A142U,-3.14
13,A60U C93U C125U,-2.48
14,U61A C105G A121U,≤ -4.2
15,A60C G83A C108G,≤ -4.2
16,A60G U90C C93A A150U,-0.698
17,G59C C63A G126A,-0.167
18,C63G G92A,-2.18
19,G59A G70C C85U A91U,≤ -4.2
20,G59A C76G U78G C85U G88A G92C,≤ -4.2
21,C63U G141C,-0.69

row,Variant,polymerase ribozyme fitness (log ratio)
1,G59U C129G,-2.56
2,G59C A98U,0.166
3,A60C C85G,-3.9
4,A60C C85A,-2.62
5,G62U A73C G94C,≤ -4.2
6,U61G C69U C93G G143A,≤ -4.2
7,G59U C93U,-3.08
8,A64U C93U A138G,≤ -4.2
9,U61A G65C U82G C118A A138U U151A,≤ -4.2
10,U61A A98U,-1.28
11,G59C U146C,0.716
12,G59C U146G,-0.145
13,G59C U148A,-2.88
14,C63A U102C,-0.926
15,U61G C125A,-1.26
16,G59A C63G C69G C93U,-2.27
17,G58U U135G,-3.76
18,G59C A89G U139C U144C,-3.75
19,A60G C96A,-0.165
20,G59U A73G G86A C87U A138U A150G,≤ -4.2
